From US20250304919A1 (MASSEY VENTURES, published 2025) come the findings set out here.

The target of the assay is T1, human fibronectin (human, UniProt P02751 32-2477).
T1 construct: also called Fn; analyte
Nature of the assay: lateral flow dipstick; reference LOD of 6.4 ng/mL is cited from the literature.

T1 sequence (P02751 32-2477 limits assumed): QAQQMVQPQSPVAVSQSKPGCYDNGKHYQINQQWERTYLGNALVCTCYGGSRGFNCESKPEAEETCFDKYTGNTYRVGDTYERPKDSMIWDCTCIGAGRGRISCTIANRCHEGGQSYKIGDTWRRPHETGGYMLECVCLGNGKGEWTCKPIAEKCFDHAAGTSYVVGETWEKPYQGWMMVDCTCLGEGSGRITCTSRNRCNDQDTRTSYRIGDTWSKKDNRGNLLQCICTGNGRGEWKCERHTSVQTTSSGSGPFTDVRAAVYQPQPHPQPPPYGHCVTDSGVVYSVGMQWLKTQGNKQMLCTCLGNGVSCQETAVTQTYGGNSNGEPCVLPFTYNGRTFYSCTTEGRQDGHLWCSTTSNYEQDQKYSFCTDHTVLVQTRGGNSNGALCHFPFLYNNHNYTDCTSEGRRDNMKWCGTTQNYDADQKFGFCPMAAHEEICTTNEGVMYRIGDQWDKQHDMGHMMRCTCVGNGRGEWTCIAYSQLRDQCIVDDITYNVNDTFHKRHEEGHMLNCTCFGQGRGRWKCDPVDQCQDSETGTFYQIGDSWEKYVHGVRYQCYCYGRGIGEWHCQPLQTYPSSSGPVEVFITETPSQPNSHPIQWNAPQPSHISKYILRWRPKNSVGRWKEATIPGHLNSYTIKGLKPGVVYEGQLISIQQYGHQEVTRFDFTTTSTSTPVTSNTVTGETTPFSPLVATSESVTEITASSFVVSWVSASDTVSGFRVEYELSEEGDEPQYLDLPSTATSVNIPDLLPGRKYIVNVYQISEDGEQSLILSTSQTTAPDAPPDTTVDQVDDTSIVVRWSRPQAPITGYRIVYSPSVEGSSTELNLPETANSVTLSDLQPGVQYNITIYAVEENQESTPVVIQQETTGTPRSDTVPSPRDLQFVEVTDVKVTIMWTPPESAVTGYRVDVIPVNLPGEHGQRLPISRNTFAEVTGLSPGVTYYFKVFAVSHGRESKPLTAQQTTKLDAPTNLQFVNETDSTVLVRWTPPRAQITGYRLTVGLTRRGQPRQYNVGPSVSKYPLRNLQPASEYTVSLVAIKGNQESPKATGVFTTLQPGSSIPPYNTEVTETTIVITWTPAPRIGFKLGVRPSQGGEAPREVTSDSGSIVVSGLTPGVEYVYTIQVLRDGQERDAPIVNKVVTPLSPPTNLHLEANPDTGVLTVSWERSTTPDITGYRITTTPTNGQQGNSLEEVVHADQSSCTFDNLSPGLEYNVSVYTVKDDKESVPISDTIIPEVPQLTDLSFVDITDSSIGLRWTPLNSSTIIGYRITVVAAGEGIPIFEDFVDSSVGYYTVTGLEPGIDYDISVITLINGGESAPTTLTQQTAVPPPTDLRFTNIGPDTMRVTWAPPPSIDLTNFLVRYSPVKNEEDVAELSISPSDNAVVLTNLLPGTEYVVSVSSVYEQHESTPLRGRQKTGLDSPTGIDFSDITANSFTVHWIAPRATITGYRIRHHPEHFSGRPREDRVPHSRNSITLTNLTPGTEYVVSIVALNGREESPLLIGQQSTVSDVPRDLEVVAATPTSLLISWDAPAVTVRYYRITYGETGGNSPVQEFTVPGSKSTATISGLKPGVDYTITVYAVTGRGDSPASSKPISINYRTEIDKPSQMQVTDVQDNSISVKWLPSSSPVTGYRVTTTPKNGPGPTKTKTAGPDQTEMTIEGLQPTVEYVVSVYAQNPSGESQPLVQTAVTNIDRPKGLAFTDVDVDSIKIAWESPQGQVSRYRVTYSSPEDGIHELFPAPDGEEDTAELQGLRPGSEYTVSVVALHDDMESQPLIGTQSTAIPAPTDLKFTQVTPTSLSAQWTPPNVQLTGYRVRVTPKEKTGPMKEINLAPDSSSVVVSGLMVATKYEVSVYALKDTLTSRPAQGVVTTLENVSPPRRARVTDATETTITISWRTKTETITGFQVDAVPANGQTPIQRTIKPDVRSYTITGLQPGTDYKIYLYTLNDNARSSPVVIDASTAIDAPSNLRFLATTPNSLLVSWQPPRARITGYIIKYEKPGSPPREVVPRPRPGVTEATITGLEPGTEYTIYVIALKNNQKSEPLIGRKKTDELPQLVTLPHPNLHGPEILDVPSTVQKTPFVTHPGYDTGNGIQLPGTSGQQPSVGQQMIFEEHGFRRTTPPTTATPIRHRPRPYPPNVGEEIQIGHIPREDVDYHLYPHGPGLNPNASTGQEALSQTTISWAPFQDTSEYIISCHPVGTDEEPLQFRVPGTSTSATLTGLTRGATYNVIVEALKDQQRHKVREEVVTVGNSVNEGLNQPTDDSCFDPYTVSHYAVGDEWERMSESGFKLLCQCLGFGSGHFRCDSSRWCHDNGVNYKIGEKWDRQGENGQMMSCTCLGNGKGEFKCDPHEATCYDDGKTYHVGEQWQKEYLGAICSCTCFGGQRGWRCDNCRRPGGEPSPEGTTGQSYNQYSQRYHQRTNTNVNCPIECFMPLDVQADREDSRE

B1: BSFnano711G8FnB2 nanorods displaying the FnB-pIII fusion (fibronectin-binding repeats of Streptococcus pyogenes serum opacity factor Sof22 fused to pIII) (other)
chain: AAQPAGGHGPIVDIVEDTGTGVEGGAQNGVVSTQENKDPIVDITEDTQPGMSGSNDATVVEEDTTPQRPDVLVGGQSDPIDITEDTQPGMSGSNDATVVEEDTVPKRPDILVGGQSDPIDITEDTQPGMSGSNDATVIEEDTKPKRFFHFDNEAAAPGGAETVESCLAKPHTENSFTNVWKDDKTLDRYANYEGCLWNATGVVVCTGDETQCYGTWVPIGLAIPENEGGGSEGGGSEGGGSEGGGTKPPEYGDRPIPGYTYINPLDGTYPPGTEQNPANPNPSLEESQPLNTFMFQNNRFRNRQGALTVYTGTVTQGTDPVKTYYQYTPVSSKAMYDAYWNGKFRDCAFHSGFNEDPFVCEYQGQSSDLPQPPVNAGGGSGGGSGGGSEGGGSEGGGSEGGGSEGGGSGGGSGSGDFDYEKMANANKGAMTENADENALQSDAKGKLDSVATDYGAAIDGFIGDVSGLANGNGATGDFAGSNSQMAQVGDGDNSPLMNNFRQYLPSLPQSVECRPFVFGAGKPYEFSIDCDKINLFRGVFAFLLYVATFMYVFSTFANILRNKES
B1: the “fold improvement of LOD against FnB nanorods of the phage system (Sattar et al., 2015)” value came out at 160 fold.
